B1: GS728: dsRNA trigger targeting B. cinerea XM_024691746.1; trigger SEQ ID NO 18, RNA 30, reverse complement 42 (nucleic acid, listed as Botrytis cinerea)
sense: CACAAGAAGCAUGGGGUAUGAAGAGAUAAGUUGUGGCUGGUGAACAACUAAAUCGACAUUUUCCGUCCCCACAGCACCUUUCGAACACUGAAUUCAAUUAAUUAUACACUGUUCCAGUAUCCACUUCCACUUCCACUCCCACAAAACAUACAAUACUACGAUAAUACGAUUUUACGAUAACGUCCAGCCUUGAGGACAACAAGUCAGAUGAAAAUCACGAGAUGGCAUUGUUUUUGAUGUUAGUAAAUGCUAUACCGACGGUAAUCGGCACUGCUGAAGCAUUAGAUGUUCAGAAGAAGGAAGAUUUGGCCCAGAAGCACAAGGCAAAGUUUUUCAUGACGGCGAAUUUUGCUUUGGAUGGAAAGGUUGCUCAUGAAAAAGAAUCACAGGUCGUCCUACGCGAUAACAGGAUGUACUUAAACCACCCAGAUGCGCCGAAAGAAGGACAUCGAUUUUGUGGUUACUAUUUCAUGUAUC
antisense: GAUACAUGAAAUAGUAACCACAAAAUCGAUGUCCUUCUUUCGGCGCAUCUGGGUGGUUUAAGUACAUCCUGUUAUCGCGUAGGACGACCUGUGAUUCUUUUUCAUGAGCAACCUUUCCAUCCAAAGCAAAAUUCGCCGUCAUGAAAAACUUUGCCUUGUGCUUCUGGGCCAAAUCUUCCUUCUUCUGAACAUCUAAUGCUUCAGCAGUGCCGAUUACCGUCGGUAUAGCAUUUACUAACAUCAAAAACAAUGCCAUCUCGUGAUUUUCAUCUGACUUGUUGUCCUCAAGGCUGGACGUUAUCGUAAAAUCGUAUUAUCGUAGUAUUGUAUGUUUUGUGGGAGUGGAAGUGGAAGUGGAUACUGGAACAGUGUAUAAUUAAUUGAAUUCAGUGUUCGAAAGGUGCUGUGGGGACGGAAAAUGUCGAUUUAGUUGUUCACCAGCCACAACUUAUCUCUUCAUACCCCAUGCUUCUUGUG
B2: GS793: dsRNA trigger targeting B. cinerea Bcswd2 (XM_024694665.1); trigger SEQ ID NO 20, RNA 32, reverse complement 44 (nucleic acid, listed as Botrytis cinerea)
sense: CUGCGUCACUAUAUGGUCCUAGACUUUUCAACUCCCUCUUUGAAGCUUACACAACAUCUUGGAAAAGUAUAAAAACAACAACAAGAAACAUGUCGUCAACCCCUAUGGCGAUAGACUCUCCAUUAGGUGCGAAUGGUACUUCCAUGUUGAAAGCAAACGGAGUCUCAUCAGUCCCACAGACUGGCAAACUGACUGAGAUGAUCUCAUUAUACCAUCCAGUCAAGCUUUUCAAACAUCCUCCGACACCUGCAGACAAAGGGCAAACUCCUCCGAGUUACAACUUUAUUCAGUCUAUCAAUUUCAAUGACAAUGGCAGUCAGCUUAUCACGUCAGAAACUGAUAACACUAUGCAAAUAUAUGAUGUUCUCGAAGGAAGACAUUCAAAAAUGAAUAUUAGUGCCAAGUAUGGUUGUAACCAUGCAAUGUUUGGCCAUGCUGAACAUUGUAUAAUCCAUUCUAGUACCAAAAAAGACCACAA
antisense: UUGUGGUCUUUUUUGGUACUAGAAUGGAUUAUACAAUGUUCAGCAUGGCCAAACAUUGCAUGGUUACAACCAUACUUGGCACUAAUAUUCAUUUUUGAAUGUCUUCCUUCGAGAACAUCAUAUAUUUGCAUAGUGUUAUCAGUUUCUGACGUGAUAAGCUGACUGCCAUUGUCAUUGAAAUUGAUAGACUGAAUAAAGUUGUAACUCGGAGGAGUUUGCCCUUUGUCUGCAGGUGUCGGAGGAUGUUUGAAAAGCUUGACUGGAUGGUAUAAUGAGAUCAUCUCAGUCAGUUUGCCAGUCUGUGGGACUGAUGAGACUCCGUUUGCUUUCAACAUGGAAGUACCAUUCGCACCUAAUGGAGAGUCUAUCGCCAUAGGGGUUGACGACAUGUUUCUUGUUGUUGUUUUUAUACUUUUCCAAGAUGUUGUGUAAGCUUCAAAGAGGGAGUUGAAAAGUCUAGGACCAUAUAGUGACGCAG
B3: GS686: dsRNA trigger targeting B. cinerea Bcrrp1 (XM_001550365.2); trigger SEQ ID NO 17, RNA 29, reverse complement 41 (nucleic acid, listed as Botrytis cinerea)
sense: CCCCUCCACCCAAGCACCUUUCUACACCGGAUUCUGGGAAAUCAUGUCCAAAGAAUGGGAACGCAUUGAUGUGCUGCGCAUGGAGAAAUUCCUGCUGCUAGUGAGACGCUAUUUGGCAGCUGGUUUUGAGGUUGUGGUAUCCAGCUCUUCCGCACCUGCGGGAAAGAAAAACAAGACGAAAGCUUCGAAGAAAGUGAUUUCGGAAUCCGGAGAGCAGGUAUUAGAAGUCCUAUCUUCCAUUCCCUGUGGUUCGGGCCCCGAUGCGCAACGCACACCGAAUGGAAUGCGCUUCCACGUAAUCGAUAUCUGGAUCGACGAGCUUGAGAAACUGGGUGUGAUCGACGCAGCGAAGGAGAGUGAAGAGGGCGCUGAGAAAUUAGAGAAAUUACUGGAGCCGUUGAGGAAAUUGGGAAAGGAGAGCAUUAAUAAGACGGUCAGGAAUAAGUGUAAGGAGGC
antisense: GCCUCCUUACACUUAUUCCUGACCGUCUUAUUAAUGCUCUCCUUUCCCAAUUUCCUCAACGGCUCCAGUAAUUUCUCUAAUUUCUCAGCGCCCUCUUCACUCUCCUUCGCUGCGUCGAUCACACCCAGUUUCUCAAGCUCGUCGAUCCAGAUAUCGAUUACGUGGAAGCGCAUUCCAUUCGGUGUGCGUUGCGCAUCGGGGCCCGAACCACAGGGAAUGGAAGAUAGGACUUCUAAUACCUGCUCUCCGGAUUCCGAAAUCACUUUCUUCGAAGCUUUCGUCUUGUUUUUCUUUCCCGCAGGUGCGGAAGAGCUGGAUACCACAACCUCAAAACCAGCUGCCAAAUAGCGUCUCACUAGCAGCAGGAAUUUCUCCAUGCGCAGCACAUCAAUGCGUUCCCAUUCUUUGGACAUGAUUUCCCAGAAUCCGGUGUAGAAAGGUGCUUGGGUGGAGGGG

Key:
[1] = test system: Botrytis cinerea B05.10 isolate; assay: Greenhouse whole plant assay (tomato 'Lanai', disease severity); assay type: in vivo; settings: final rating day (rating #3)
Procedure: Plant Tissue: Tomato seedlings, variety “Lanai”, were seeded then thinned to one plant per pot in an 18 cell tray. […] Plants were grown at a 23° C./17° C. day/night temperature with 10 hours of light each 24-hour period. The RH was ambient and plants were fertilized two times a day every day except for Sunday when they received only water. Plants were grown using Fafard brand medium (70-80% sphagnum peat moss, perlite, vermiculite, dolomite limestone and watering agent) for the entire experiment.
Fungal culture. A Botrytis cinerea B05.10 isolate was maintained, and spores were harvested as previously described for detached leaf assays, except a grape juice additive was not used for inoculum preparation.
Treatment of plants. Whole tomato plants were treated ˜24 hours before inoculation using the spray booth. A 0.07% Silwet L-77 solution was used as a spreader and added for a 0.07% final volume in water (Silwet L-77 brand Phyto Technology Laboratories, S7777 Lot #14D7777001 F). The spray booth deck was set to 20″ above the plant canopy and a twinjet 8002EVS nozzle with 100 mesh filter placed into the spray mechanism. The spray boom was calibrated before treatment application with specs as follows: 50 GPA rate, 1.25 MPH speed, 6′ spray length, single pass, and at 45 psi to get a catch of 133 mL in 10 seconds (+/−6 mL). Each treatment was replicated ten times for each experimental run.
Inoculation. Plants were inoculated using a mist-o-matic applicator, which is pressurized by manual pumping. The inoculum suspension was poured into the mist-o-matic immediately before inoculation in the GH space. The containers were only filled half-way and inoculum was applied evenly to the surface of all foliage with even coverage.
Incubation. Plants were incubated inside of a 40″ tall humidity chamber supported by PVC pipe and covered in 3M translucent plastic. A humidifier was inside the chamber and set to low and continuous humidity (filled with tap water). The temperature was D:24-20° C./N:20-18° C. with 15 hours of light, of which 9 hours was with supplemental lighting. RH was ambient and watering occurred everyday by sub-irrigation with the bench being flooded for 10 minutes before draining.
Rating. Tomato plants were rated three times during the two-week experiment with rating starting four days post-inoculation and occurring every three to four days after the initial rating date. Plants were rated for the number of lesions and disease severity, which is the percentage of the plant that was symptomatic including necrotic lesions, pathogen sporulation, and chlorosis.
Data analysis. […] Percent disease severity (%DS) was determined by the percent area of the tomato foliage with symptoms including lesions, chlorosis, necrosis, and wilting. Disease severity was rated at three dates (Rating #) over the 12-day test period. Treatments were compared to the untreated, inoculated control and a chemical standard. Statistical analysis was done using SAS JMP version 13.2.1 with treatments compared to the untreated, inoculated control and a chemical standard using Tukey-Kramer and student's T tests.

Botrytis cinerea conidia = assay: In vitro liquid-based assay (fungal biomass, 96-well plates, Cytation 5); assay type: cell-based; settings: co-incubated with conidia for three days, vs untreated control
Summary of the method: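 Conidia (5000/mL stock) were co-incubated with dsRNA or control treatments in pH 6.0 minimal medium. Incubation ran 72 h at 23 °C, shaking at 120 rpm under continuous light. Fungal biomass was measured by brightfield imaging (8 slices per well, 2.5× lens) and expressed as average reduction versus control.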

[2] = test system: Botrytis cinerea isolate (B05.10); assay: Detached leaf assay (tomato leaflets, lesion size); assay type: in vivo; settings: five days post inoculation, vs untreated inoculated control
Summary of the method: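 Tomato (Brandywine) detached lateral leaflets were sprayed with treatment in 0.03% Silwet L-77 24 h before inoculation. Two 10 μL drops of 1×10^5 conidia/mL in 7% grape juice were applied per leaflet, which was then incubated at 23 °C, ~75% RH, 12/12 light. Lesion diameter was measured at 5 DPI against the untreated inoculated control, ten replicates.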

[3] = 8 g ai/ha, two runs, three-week-old 'Lanai' tomato plant
[4] = 25 g ai/ha, two runs, three-week-old 'Lanai' tomato plant

Row | Molecule | % control [1, 3] [%] | % control [1, 4] [%] | Average % Reduction in Biomass (Botrytis cinerea conidia; 25 ppm dsRNA) [%] | Average % Reduction in Biomass (Botrytis cinerea conidia; 150 ppm dsRNA) [%] | Average % Reduction in Lesion Size ([2]; 30 ppm) [%] | Average % Reduction in Lesion Size ([2]; 50 ppm) [%] | % control ([1]; 25 g ai/ha, three runs, four-week-old 'Lanai' tomato plant) [%]
1 | B1 | 27 | 37 | 20 | 35 | 20.16 | 16.48 | 
2 | B2 |  |  | 13 | 36 | 55.26 | 57.69 | 24
3 | B3 | 31 | 14 | 16 | 37 | 39.61 | 33.29 | 
